The values below come from US8628762B2, “T-helper cell type 17 lineage-specific adjuvants, compositions and methods” (Icahn School of Medicine at Mount Sinai, priority 2008, dated 2014).

Assay [1] concerns Naïve CD4 T-cells. Briefly: qPCR of lineage genes in naïve CD4 T-cells cultured with DCCM. The note with it: quantitative RT-PCR. The assay is classed as cell-based, C57BL/6J mice. The source says:
(§1) Naïve CD4 T cells were isolated first by sorting with MACS® CD4^+ beads (Miltenyi Biotech, Auburn, Calif.) according to manufacturer's instructions and then by fluorescence activated cell sorting (FACS) using a MoFlo™, Vantage, or Influx™ cell sorter for CD25^−CD44^lowCD62L^high cells using allophycocyanin (APC)-conjugated anti-CD25 monoclonal antibody (mAb) (clone PC61.5), FITC-conjugated CD62L mAb (clone MEL-14), and PE-Cy5-conjugated CD44 mAb (clone IM7) (all from eBioscience™, San Diego, Calif.). Cells were grown in complete IMDM (Gibco, Carlsbad, Calif.) supplemented with 10% FBS, 100 μg/mL penicillin, 100 μg/mL streptomycin, 2 mM L-glutamine, 10 mM HEPES, and 1 nM sodium pyruvate, and activated on 48-well tissue-culture plates which had been coated with 4 μg anti-CD3 (clone 2C11) for 3 h at 37° C., then washed 3 times with PBS. Cultures were supplemented with 2 μg/mL anti-CD28 (clone 37-51, a kind gift from J. Allison, Sloan-Kettering Cancer Center) and anti-IL-4 ascites (clone 11B11, a kind gift from T. Moran, Mount Sinai School of Medicine, ATCC number HB188) at 1:500. mAbs 2C11 and 37-51 were purified from hybridoma supernatants by BioXCell Company (West Lebanon, N.H.). When cultured with conditioned medium (CM) from BMDC, T cells were grown in 1:1 CM:fresh complete IMDM. […]
T cells cultured for 48 hours under the indicated conditions were lysed and RNA isolated by TRIzol® extraction (Invitrogen) according to manufacturer's instructions. […] Quantitative real-time, reverse transcription polymerase chain reaction (qPCR) was conducted on an ABI Prism® 7900 instrument (Applied Biosystems, Foster City, Calif.) with primer pairs and probes as follows. […]
Quantitative PCR was performed using TaqMan® quantitative PCR Master Mix at a concentration of 1× (Applied Biosystems). […] “Fold inductions” were calculated using the ΔΔCt method relative to T cells activated under neutral conditions (No cytokines or CM). […]
In general terms: Quantitative PCR measures a nucleic acid by following its amplification.

In assay [2] the test system is Naïve CD4 T cells. Briefly: Intracellular staining (IL-17, IFN-γ, IL-10, Foxp3) of CD4 T cells cultured with DCCM, flow cytometry. The conditions noted are these: IL-6 added to DCCM-apoptotic B-cells or DCCM-apoptotic neutrophils. The assay is classed as cell-based, C57BL/6J mice.
Source text: as §1, with “PBS.” for “PBS. Cultures were supplemented with 2 μg/mL anti-CD28 (clone 37-51, a kind gift from J. Allison, Sloan-Kettering Cancer Center) and anti-IL-4 ascites (clone 11B11, a kind gift from T. Moran, Mount Sinai School of Medicine, ATCC number HB188) at 1:500. mAbs 2C11 and 37-51 were purified from hybridoma supernatants by BioXCell Company (West Lebanon, N.H.). When cultured with conditioned medium (CM) from BMDC, T cells were grown in 1:1 CM:fresh complete IMDM.”
Because development of Treg cells is reciprocally related to TH17 cells^10 expression of Foxp3, a transcription factor unique to Treg cells^19 was examined. After 3 days of culture with DCCM from the indicated groups, T cells were restimulated with PMA and ionomycin for 4 hours with Brefeldin A before intracellular cytokine staining for IL-17 and IFN-γ was performed, and expression of these cytokines was determined by FACS. […]
For orientation: Flow cytometry measures light scatter and fluorescence of single cells or particles in a stream.

B1: IL-6: cytokine interleukin-6 (Peprotech), 50 ng/mL (protein, UniProt P08505 25-211, looked up)
Interleukin-6: FPTSQVRRGDFTEDTTPNRPVYTTSQVGGLITHVLWEIVEMRKELCNGNSDCMNNDDALAENNLKLPEIQRNDGCYQTGYNQEICLLKISSGLLEYHSYLEYMKNNLKDNKKDKARVLQRDTETLIHIFNQEVKDLHKIVLPTPISNALLTDKLESQKEWLRTKTIQFILKSLEEFLKVTLRSTRQT
Take B1: in assay [1], the “Foxp3 mRNA induction” value is on record as “Foxp3 induction was impaired”. For the same molecule, in assay [2], the Foxp3 expression result was “markedly impaired Foxp3 expression” and the IL-17 production entry is “restored IL-17 production”.
